Reference: publication PMC8939769

Assays:
[1] = target: SARS-CoV-2 S trimer (S2P ectodomain protein) (SARS-CoV-2) (UniProt P0DTC2); assay: not stated; binding kinetics (ka, kd, KD) on the SARS-CoV-2 S trimer (S2P ectodomain protein); representative of at least two independent assays; assay details in the Supplementary materials
[2] = target: SARS-CoV-2 S trimer (S2P ectodomain protein) (SARS-CoV-2) (UniProt P0DTC2)

“AZD7442 (combination of AZD8895 and AZD1061)” was tested, and the Kd [1] was 0.0137 nM and the neutralization of the USA-WA1/2020 strain of SARS-CoV-2 in vitro, IC50 [2] was 10 ng/mL.
